# Experimental data: patent US20220369998A1, “METHODS FOR DIAGNOSING AND TREATING NEURAL DISEASES” (B. G. NEGEV TECHNOLOGIES AND APPLICATIONS LTD., AT …, priority 2019, published 2022)
# “Also recorded” adds a separate entry of the source.
# B1: albumin (protein, UniProt P02770 25-608, looked up)
# Albumin: EAHKSEIAHRFKDLGEQHFKGLVLIAFSQYLQKCPYEEHIKLVQEVTDFAKTCVADENAENCDKSIHTLFGDKLCAIPKLRDNYGELADCCAKQEPERNECFLQHKDDNPNLPPFQRPEAEAMCTSFQENPTSFLGHYLHEVARRHPYFYAPELLYYAEKYNEVLTQCCTESDKAACLTPKLDAVKEKALVAAVRQRMKCSSMQRFGERAFKAWAVARMSQRFPNAEFAEITKLATDVTKINKECCHGDLLECADDRAELAKYMCENQATISSKLQACCDKPVLQKSQCLAEIEHDNIPADLPSIAADFVEDKEVCKNYAEAKDVFLGTFLYEYSRRHPDYSVSLLLRLAKKYEATLEKCCAEGDPPACYGTVLAEFQPLVEEPKNLVKTNCELYEKLGEYGFQNAVLVRYTQKAPQVSTPTLVEAARNLGRVGTKCCTLPEAQRLPCVEDYLSAILNRLCVLHEKTPVSEKVTKCCSGSLVERRPCFSALTVDETYVPKEFKAETFTFHSDICTLPDKEKQIKKQTALAELVKHKPKATEDQLKTVMGDFAQFVDKCCKAADKDNCFATEGPNLVARSKEALA
# notes: serum protein infused ICV (0.8 mM, 28 days) in rats as a model of chronic BBB disruption
# Test system: young rats (10-12 weeks of age)
# Experiment: Long-term intra-cerebroventricular albumin perfusion in rats, telemetric ECoG recording and PSWE detection
# Assay type: in vivo, rat
# Procedure: All animal experiments were conducted following an ethical committee approval of the institution in which they were performed, Ben Gurion University of the Negev, Beer-Sheva, Israel or The University of California, Berkeley, Berkeley, Calif., US. Electrodes and wireless transmitters were implanted in the following animal groups: 1) Twelve weeks old (n=5) mice; 2) 18-22 months old (n=12) mice; 3) Nine to 11-weeks-old Wistar male rats implanted with 28 days long intra-cerebroventricular (ICV) perfusion osmotic pumps (N=8, 0.8 mM albumin infusion, N=5 ACSF infusion); 4) Sprague-Dawley rats (n=5, weighing 300 gr) 3 weeks after status epilepticus (SE, see below) and naïve rats (N=3). Groups 1 and 2 electrode coordinates: 0.5 mm rostral or 3.5 mm caudal and 1 mm lateral to bregma, on each side (4 screws, 2 in each hemisphere); Group 3 coordinates: 4.8 mm posterior or 2.7 mm anterior, and 2.2 mm lateral to bregma, on each side (4 screws, 2 in each hemisphere); Group 4 coordinates: 3 mm caudal and 2.5 mm lateral to bregma, on each side (2 screws, 1 in each hemisphere)). Continuous ECoG (sampling rate of 500 Hz) was recorded wirelessly from freely moving animals in their home cage for the described duration of experiments.
# Signal processing was performed offline. Pre-processing included high pass filter (1 Hz), low pass filter (100 Hz) and notch (band-stop) filter (45-55 Hz). EEG human recordings were analyzed as reference to average. Human data were preprocessed by EEGLAB. Animal data were preprocessed using home-developed MATLAB (MathWorks Ltd., MA USA) scripts. To detect PSWE, ECoG or EEG signals were buffered into 2 sec long epochs with 1 sec overlap. Spectral analysis by Fast Fourier Transform (FFT) was applied and the median power frequency (MPF) was extracted for each epoch. PSWE was defined if MPF was <6 Hz for >5 consecutive seconds (see results). Analysis was performed separately for each recorded channel. Power spectrum as in FIG. 1A was calculated for the average channel and for animals ECoG data (e.g., FIG. 2A) over a single channel. FFT was also applied for the entire recording period buffered into 8 seconds epoch with 4 seconds overlap to analyze relative power across the frequency spectrum of 1-20 Hz. Processing was performed by self-developed MATLAB scripts.
# The inventors next recorded ECoG from young rats (10-12 weeks of age) exposed to ICV albumin (N=8), compared to animals exposed to ACSF (controls, N=5).
# [1] = ECoG spectral analysis, long-term albumin N=8 vs ACSF N=5
molecule,measurement,setting,value
B1,relative power in alpha (8-12 Hz) band compared with ACSF-injected animals,[1],significantly lower
same,relative power in beta (12-20 Hz) band compared with ACSF-injected animals,[1],significantly lower
same,relative power in the delta (1-5 Hz) band compared with ACSF-injected animals,[1],significantly greater
same,"occurrence per minute of PSWEs, albumin-injected hemisphere compared with the non-injected hemisphere","ICV osmotic pump, right lateral ventricle, four weeks after onset of perfusion, ipsilateral vs contralateral, N=8",significantly higher; also recorded: more common
same,PSWE duration compared with the ACSF treated group,albumin treated group vs ACSF,significantly longer
same,PSWE median frequency compared with the ACSF treated group,albumin treated group vs ACSF,slower; also recorded: significantly lower
same,"occurrence per minute of PSWEs, albumin-injected hemisphere compared with ACSF-injected controls","four weeks after onset of perfusion, albumin N=8 vs ACSF N=5",significantly higher; also recorded: more common
same,higher occurrence per minute of PSWEs detected at one week,one week after onset of perfusion,not at one week
